{"source": "paper PMC11901735", "about": "(Molecules, 2025)", "binders": {"B1": {"name": "Recombinant human GLP-1R protein (receptor)", "chain": "RPQGATVSLWETVQKWREYRRQCQRSLTEDPPPATDLFCNRTFDEYACWPDGEPGSFVNVSCPWYLPWASSVPQGHVYRFCTAEGLWLQKDNSSLPWRDLSECEESKRGERSSPEEQLLFLY", "modifications": "Limits are not printed. The Sino Biological H02H catalogue suffix suggests a soluble extracellular domain with a C-terminal human Fc (left out). Residues 24-145 are the usual ectodomain construct …"}}, "key": {"[1]": {"biological_target": "exendin-4 (UniProt P26349 48-87)", "test": "SPR; Biacore T200; recombinant human GLP-1R (0.5 μM) immobilized on a CM5 sensor chip; peptides injected at four-fold serial dilutions (0, 0.1-100 nM); n = 3; 1:1 interaction model", "details": "both partners purified"}, "[2]": {"biological_target": "Ex-4-C40, exendin-4 with an additional Cys at the C-terminus (UniProt P26349 48-87)", "test": "SPR; Biacore T200; recombinant human GLP-1R (0.5 μM) immobilized on a CM5 sensor chip; peptides injected at four-fold serial dilutions (0, 0.1-100 nM); n = 3; 1:1 interaction model", "details": "both partners purified"}}, "data": [{"binder": "B1", "values": [{"measurement": "Kd", "setting": "[1]", "result": 33.6, "unit": "nM"}, {"measurement": "Kd", "setting": "[2]", "result": 36, "unit": "nM"}]}]}
